Experimental data reported in patent US20110053163A1, “Biomarker” (BIOVATOR TECHNOLOGIES AB, priority 2007, published 2011).

What was measured:
MonoMac-6 cells = assay: Cytokine Profile Assay (CPA): neopterin production by stimulated MonoMac-6 cells, ELISA; format: cell-based, human; conditions: with IFN-γ 100 U/ml
Description: (§1) The instructions of the manufacturers were followed. All these tests are enzyme immunoassays (EIA:s). The principle is that microtiter plate wells are labelled with a cytokine specific capture antibody. If cytokine is present in the samples added to the wells it will be captured to the bottom of the well. […] The reaction is thereafter measured as colour developed after addition of a substrate for the enzyme. The values for the test wells are compared with a standard curve obtained by adding a series of known amounts of cytokine. The values obtained for control wells with no substance added are used as background values for cytokine levels.
(§2) The myelomonocytic cell line MonoMac-6 (obtained from DSMZ, accession number ACC 124, Prof. H. W. L. Ziegler-Heitbrock, Inst. For Immunology, University of Munich, Munich) was cultured in cell culture flasks (Corning). Cells were cultured in RPMI 1640 medium (Gibco BRL), containing 20 mM HEPES and L-glutamine and supplemented with 10% heat-inactivated foetal bovine serum (Gibco BRL), penicillin (100 U/mL; Sigma-Aldrich), streptomycin (100 μg/mL; Sigma-Aldrich), sodium pyruvate (1.0 mM;Gibco BRL), human insulin (9 μg/mL; Gibco BRL) and non-essential amino acids (Gibco BRL) or cultured in Panserin 411 (Pan Biotech) supplemented with penicillin (100 U/mL), streptomycin (100 μg/mL).
The cells were split approximately 1:3 the day before stimulation. The stimulation procedure was performed in three steps. The first step was pre-dilution of test substances, to double the final concentration, in cell culture medium. Furthermore, Interferon-γ (IFN-γ) (100 U, PreproTech) was added in the cell culture media for 24 or 48 hours during stimulation of cells with test substances. The number of cells was then determined by trypan blue exclusion and the cells were diluted to twice the final test concentration (2×10^6 cells/mL) if not otherwise indicated and 100 μl of cell suspension was added per well in 96 well tissue culture plates (Corning). Finally, a 100 μl of pre-diluted test substance (triplicate cultures) was added to the tissue culture plates. […] The stimulated cells were cultured at 37° C., 5% CO2, for 24 or 48 hours. The cell suspension was transferred to new cell culture plates and stored at −20° C. until analyzed. Thereafter the cell suspension was analyzed for presence of neopterin and IL-10 by ELISA (IBL-Hamburg) following the manufacturers instructions.

MM6-cells = assay: CPA: IL-10 levels of stimulated MM6 cells, ELISA; format: cell-based, human; conditions: 25-200 μg/ml; 48 hours; with IFN-γ 100 U/ml
Description: as §1, §2
The cells were split approximately 1:3 the day before stimulation. The stimulation procedure was performed in three steps. The first step was pre-dilution of test substances, to double the final concentration, in cell culture medium. […] The number of cells was then determined by trypan blue exclusion and the cells were diluted to twice the final test concentration (2×10^6 cells/mL) if not otherwise indicated and 100 μl of cell suspension was added per well in 96 well tissue culture plates (Corning). […] The cell suspension was transferred to new cell culture plates and stored at −20° C. until analyzed. Thereafter the cell suspension was analyzed for presence of neopterin and IL-10 by ELISA (IBL-Hamburg) following the manufacturers instructions.

[1] = serum free Panserin media, 48 hrs

B1: Alt a 1: native allergen component from Phadia (Alternaria) (protein, UniProt P79085 19-157, looked up)
Major allergen Alt a 1: APLESRQDTASCPVTTEGDYVWKISEFYGRKPEGTYYNSLGFNIKATNGGTLDFTCSAQADKLEDHKWYSCGENSFMDFSFDSDRSGLLLKQKVSDDITYVATATLPNYCRAGGNGPKDFVCQGVADAYITLVTLPKSS
neopterin response (in words) (MonoMac-6 cells; proteins, RPMI+10% FCS, 24 hrs, over the tested concentrations): increased in a dose dependent manner
neopterin response (in words) (MonoMac-6 cells; serum free Panserin media, 24 hrs): increased in a dose dependent manner
neopterin response (in words) (MonoMac-6 cells; [1]): increased in a dose dependent manner
IL-10 levels (in words) (MM6-cells): induced increased IL-10 levels in a dose dependent manner

B2: Gal d 2: native allergen component from Phadia (Ovalbumin, Egg white) (protein, UniProt P01012 2-386, looked up)
Ovalbumin: GSIGAASMEFCFDVFKELKVHHANENIFYCPIAIMSALAMVYLGAKDSTRTQINKVVRFDKLPGFGDSIEAQCGTSVNVHSSLRDILNQITKPNDVYSFSLASRLYAEERYPILPEYLQCVKELYRGGLEPINFQTAADQARELINSWVESQTNGIIRNVLQPSSVDSQTAMVLVNAIVFKGLWEKAFKDEDTQAMPFRVTEQESKPVQMMYQIGLFRVASMASEKMKILELPFASGTMSMLVLLPDEVSGLEQLESIINFEKLTEWTSSNVMEERKIKVYLPRMKMEEKYNLTSVLMAMGITDVFSSSANLSGISSAESLKISQAVHAAHAEINEAGREVVGSAEAGVDAASVSEEFRADHPFLFCIKHIATNAVLFFGRCVSP
neopterin response (in words) (MonoMac-6 cells; [1]): increased in a dose dependent manner
IL-10 levels (in words) (MM6-cells): induced increased IL-10 levels in a dose dependent manner

B3: Der p 1: allergenic protein tested for IL-10 induction (protein, UniProt P08176 99-320, looked up)
Peptidase 1: TNACSINGNAPAEIDLRQMRTVTPIRMQGGCGSCWAFSGVAATESAYLAYRNQSLDLAEQELVDCASQHGCHGDTIPRGIEYIQHNGVVQESYYRYVAREQSCRRPNAQRFGISNYCQIYPPNVNKIREALAQTHSAIAVIIGIKDLDAFRHYDGRTIIQRDNGYQPNYHAVNIVGYSNAQGVDYWIVRNSWDTNWGDNGYGYFAANIDLMMIEEYPYVVIL
IL-10 levels (in words) (MM6-cells): induced increased IL-10 levels in a dose dependent manner

B4: Gal d 3: native allergen component from Phadia (Conalbumin, Egg, white) (protein, UniProt P02789 20-705, looked up)
Ovotransferrin: APPKSVIRWCTISSPEEKKCNNLRDLTQQERISLTCVQKATYLDCIKAIANNEADAISLDGGQAFEAGLAPYKLKPIAAEVYEHTEGSTTSYYAVAVVKKGTEFTVNDLQGKTSCHTGLGRSAGWNIPIGTLLHRGAIEWEGIESGSVEQAVAKFFSASCVPGATIEQKLCRQCKGDPKTKCARNAPYSGYSGAFHCLKDGKGDVAFVKHTTVNENAPDQKDEYELLCLDGSRQPVDNYKTCNWARVAAHAVVARDDNKVEDIWSFLSKAQSDFGVDTKSDFHLFGPPGKKDPVLKDLLFKDSAIMLKRVPSLMDSQLYLGFEYYSAIQSMRKDQLTPSPRENRIQWCAVGKDEKSKCDRWSVVSNGDVECTVVDETKDCIIKIMKGEADAVALDGGLVYTAGVCGLVPVMAERYDDESQCSKTDERPASYFAVAVARKDSNVNWNNLKGKKSCHTAVGRTAGWVIPMGLIHNRTGTCNFDEYFSEGCAPGSPPNSRLCQLCQGSGGIPPEKCVASSHEKYFGYTGALRCLVEKGDVAFIQHSTVEENTGGKNKADWAKNLQMDDFELLCTDGRRANVMDYRECNLAEVPTHAVVVRPEKANKIRDLLERQEKRFGVNGSEKSKFMMFESQNKDLLFKDLTKCLFKVREGTTYKEFLGDKFYTVISSLKTCNPSDILQMCSFLEGK
neopterin response (in words) (MonoMac-6 cells; [1]): increased in a dose dependent manner
